This is an account of results in patent US20230002478A1.

Holding throughout (test): SPR
Settings in all cases: remark: other sources report otherwise

Experiment [1] concerns the target SARS-CoV-2 S RBD (K417N) (SARS-CoV-2), P0DTC2.
The target of experiment [2] is SARS-CoV-2 S RBD (N501Y) (SARS-CoV-2), P0DTC2.
Experiment [3] concerns the target SARS-CoV-2 S RBD (Y453F) (SARS-CoV-2), P0DTC2.
The target in experiment [4] is SARS-CoV-2 S1 (D614G) (SARS-CoV-2), P0DTC2.
Experiment [5] concerns the target SARS-CoV-2 S1 (HV69-70del, Y144del, N501Y, A570D, D614G, P681H) (SARS-CoV-2), P0DTC2.

A word on the Kd: it is a measure of binding affinity in units of concentration. Lower therefore signals a tighter complex.

B1: 6-63 (Fc fusion)
chain: EVQLVESGGGLVQPGGSLRLSCAASGQTFNMGWFRQAPGKEREFVAAIGSGGSTSYADSVKGRFTISADNSKNTAYLQMNSLKPEDTAVYYCWRLGNDYFDYWGQGTLVTVSS
Consider B1, for which the Kd amounted to 14 nM in experiment [1]; 3.8 nM in experiment [2]; 5.4 nM in experiment [3]; 95 nM in experiment [4]; 80 nM in experiment [5].
